Positions count from the first letter of the chain named. In names and notes the source's numbering stands.
B1: Fc-containing molecule with triple mutation K409D, K392D, K370D (other)
chain: EPKSCDKTHTCPPCPAPELLGGPSVFLFPPKPKDTLMISRTPEVTCVVVDVSHEDPEVKFNWYVDGVEVHNAKTKPREEQYNSTYRVVSVLTVLHQDWLNGKEYKCKVSNKALPAPIEKTISKAKGQPREPQVYTLPPSREEMTKNQVSLTCLVDGFYPSDIAVEWESNGQPENNYDTTPPVLDSDGSFFLYSDLTVDKSRWQQGNVFSCSVMHEALHNHYTQKSLSLSPGK
B2: Fc-containing molecule with triple mutation K409D, K392D, K439D (other)
chain: B1 chain with D155K, K224D
B3: Fc-containing molecule with triple mutation D399K, E356K, E357K (Fc fusion)
chain: HMAEVQLQQSGAELVKPGSSVKISCKASGYTFANNFMHWIKQQPGNGLEWIGWIYPGDGDTEYNQKFSGKATLTADKSSSTAYMQLNSLTSEDSAVYFCIRLTEGTTYWGQGVMVTVSSGGGGSGGGGSGGGGSQFVLTQPNSVSTNLGSTVKLSCKRSTGNIGSNYVNWYQQHEGRSPTTMIYRDDKRPDGVPDRFSGSIDGSSNSALLTINNVQTEDEADYFCQSYSRGVSPVFGGGTKLTVLAAAEPKSCDKTHTCPPCPAPELLGGPSVFLFPPKPKDTLMISRTPEVTCVVVDVSHEDPEVKFNWYVDGVEVHNAKTKPREEQYNSTYRVVSVLTVLHQDWLNGKEYKCKVSNKALPAPIEKTISKAKGQPREPQVYTLPPSRKKMTKNQVSLTCLVKGFYPSDIAVEWESNGQPENNYKTTPPVLKSDGSFFLYSKLTVDKSRWQQGNVFSCSVMHEALHNHYTQKSLSLSPGK

Target: the molecule itself
Assay: homodimer formation; expressed alone in 293-6E, western blot with goat anti-human Fc HRP
Text: FIG. 11. […] Fc molecules were detected using goat-anti-human Fc HRP conjugated at 1:10,000.
DNA was transfected into human embryonic kidney cell line 293-6E using Lipofectamine™ 2000 reagent (Invitrogen). The cell culture supernatant was harvested 3-4 days after transfection and analyzed on SDS-PAGE Gels under non-reduced condition. The gel was then transferred to nitrocellulose membrane and subject to western analysis using peroxidase-conjugated goat anti-human IgG antibody (Jackson ImmunoResearch Laboratories) and results are shown in FIG. 10.
Mutants were made and cells transfected as described in Example 1. When the constructs were co-transfected, a 1:1 ratio of plasmids were used. Heterodimer and homodimers were detected by Western blot using goat-anti-human Fc HRP conjugated antibody. […] Similarly, Fc-containing molecules having triple mutations wherein negative-charged residues were changed to positive-charged residues (D399K,E356K,E357K) were unable to be detected when expressed alone. When co-expressed with an Fc-containing molecule having mutations of opposite charge polarity, however, heterodimers only were detected.
B1: no binding.
B2: no binding.
B3: no binding.

Source: US20100286374A1 (Amgen, published 2010)
